B1: Azoarcus group I ribozyme (parent)
chain: GUGCCUUGCGCCGGGAAACCACGCAAGGGAUGGUGUCAAAUUCGGCGAAACCUAAGCGCCCGCCCGGGCGUAUGGCAACGCCGAGCCAAGCUUCGGCGCCUGCGCCGAUGAAGGUGUAGAGACUAGACGGCACCCACCUAAGGCAAACGCUAUGGUGAAGGCAUAGUCCAGGGAGUGGCGAAAGUCACACAAACCGG

In this data set the parent is B1. Put plainly: reverse-splicing fitness (ratio to wild type); higher = more active; in vitro selection; Mg2+ level not given. In short, it runs like this:
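An in vitro group I ribozyme library with randomized positions was T7-transcribed and gel-purified. In triplicate, 10 pmol RNA in EPPS pH 7.5 was reacted with 50 pmoles of a 30-nt RNA substrate for 1 h at 37 °C across several added MgCl2 levels (1–48 mM), then stopped with EDTA. Products were reverse transcribed from a substrate-complementary primer, PCR-amplified and sequenced (HiSeq 4000). Fitness is a variant's read proportion after selection over that before, normalised to wild type.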
Take A111U A120C A145C C150A C169G U176G: the reverse-splicing fitness turned out to be 0.00536.

Consider A111U A120G A145C C150A U176C, for which the reverse-splicing fitness stood at 0.0112.

Regarding A111U A120G A145C C150A U176G, the reverse-splicing fitness stood at 0.00407.

Consider A111U A120G A145C C150A U176A, for which the reverse-splicing fitness stood at 0.00785.

As for A111U A120C C150G C169A U176A, the reverse-splicing fitness was found to be 0.00901.

With A111U A120C C150G C169A U176G, the reverse-splicing fitness was 0.00573.

Take A111U A120C C150G C169A U176C: the reverse-splicing fitness was 0.0104.

As for A111U A120C A145U C150A C169A U176G, the reverse-splicing fitness came out at 0.00488.

Regarding A111U A120C A145U C150A C169A U176A, the reverse-splicing fitness stood at 0.0108.

For the variant A111U A120C A145U C150A C169A U176C, the reverse-splicing fitness worked out at 0.00867.

With A111U A120G A145C C150U C169U U176C, the reverse-splicing fitness is 0.0209.

For the variant A111U A120G A145C C150U C169U U176A, the reverse-splicing fitness was 0.0278.

In the case of A111U A120G A145C C150U C169U U176G, the reverse-splicing fitness was determined as 0.00469.

As to A111U A120C C150A C169G U176G, the reverse-splicing fitness is 0.00525.

With A111U A120C C150A C169G U176C, the reverse-splicing fitness worked out at 0.0197.

Turning to A111U A120C C150A C169G U176A, the reverse-splicing fitness is 0.0168.

A111U A120C A145G C150A C169A U176C: the reverse-splicing fitness amounted to 0.0204.

Regarding A111U A120C A145G C150A C169A U176A, the reverse-splicing fitness was determined as 0.0184.

A111U A120C A145G C150A C169A U176G: the reverse-splicing fitness was found to be 0.00601.

For the variant A111U A120C C150U C169G U176A, the reverse-splicing fitness is 0.0138.

A111U A120C C150U C169G U176C: the reverse-splicing fitness is 0.0132.

Consider A111U A120C C150U C169G U176G, for which the reverse-splicing fitness came out at 0.00495.

For the variant A111U A120C A145U C150A C169U U176C, the reverse-splicing fitness was found to be 0.0187.

Regarding A111U A120C A145U C150A C169U U176A, the reverse-splicing fitness amounted to 0.0185.

With A111U A120C A145U C150A C169U U176G, the reverse-splicing fitness was 0.00493.

For A111U, the reverse-splicing fitness came to 0.971.

A111U A120G A145C C150G C169G U176G: the reverse-splicing fitness was determined as 0.00359.

With A111U A120G A145C C150G C169G U176A, the reverse-splicing fitness amounted to 0.00926.

Take A111U A120G A145C C150G C169G U176C: the reverse-splicing fitness is 0.00636.

Regarding A111U A120C A145C C150U U176A, the reverse-splicing fitness stood at 0.0815.

As to A111U A120C A145C C150U U176G, the reverse-splicing fitness stood at 0.019.

As to A111U A120C A145C C150U U176C, the reverse-splicing fitness is 0.0967.

With A111U A120G A145G C150A, the reverse-splicing fitness amounted to 0.0285.

As for A111U A120C A145C, the reverse-splicing fitness worked out at 0.537.

As to A111U A120C A145G, the reverse-splicing fitness was 0.569.

For the variant A111U A120C A145U, the reverse-splicing fitness came to 0.596.

Consider A111U A120C A145G C169G, for which the reverse-splicing fitness worked out at 0.0095.

For the variant A111U A120C A145G C169U, the reverse-splicing fitness came out at 0.172.

Regarding A111U A120C A145G C169A, the reverse-splicing fitness was found to be 0.0121.

Consider A111U A120C A145U C150U C169A, for which the reverse-splicing fitness amounted to 0.0105.

With A111U A120C A145U C150U C169U, the reverse-splicing fitness worked out at 0.112.

As for A111U A120C A145U C150U C169G, the reverse-splicing fitness came to 0.00826.

For the variant A111U A120C C169U, the reverse-splicing fitness was determined as 0.174.

Consider A111U A120C C169G, for which the reverse-splicing fitness came out at 0.0098.

Regarding A111U A120C C169A, the reverse-splicing fitness came out at 0.0124.

In the case of A111U A120C C169G U176A, the reverse-splicing fitness was determined as 0.0144.

For A111U A120C C169G U176C, the reverse-splicing fitness was 0.0168.

Turning to A111U A120C C169G U176G, the reverse-splicing fitness is 0.00402.

For A111U A120C A145U C150U C169U U176A, the reverse-splicing fitness was 0.0306.

Take A111U A120C A145U C150U C169U U176C: the reverse-splicing fitness was found to be 0.0381.

On to A111U A120C A145U C150U C169U U176G, for which the reverse-splicing fitness was 0.0049.

Take A111U A120C A145C C150G C169A: the reverse-splicing fitness amounted to 0.00818.

For the variant A111U A120C A145C C150G C169G, the reverse-splicing fitness is 0.00716.

A111U A120C A145C C150G C169U: the reverse-splicing fitness was found to be 0.0236.

For the variant A111U A120G A145C C169U U176G, the reverse-splicing fitness is 0.00629.

Turning to A111U A120G A145C C169U U176C, the reverse-splicing fitness is 0.0453.

Take A111U A120G A145C C169U U176A: the reverse-splicing fitness amounted to 0.0455.

With A111U A120C A145U C150A, the reverse-splicing fitness worked out at 0.061.

As for A111U A120C A145U C150G, the reverse-splicing fitness stood at 0.0712.

For the variant A111U A120C A145U C150U, the reverse-splicing fitness was 0.401.

A111U A120C A145G C150U C169A U176C: the reverse-splicing fitness is 0.0138.

As for A111U A120C A145G C150U C169A U176A, the reverse-splicing fitness was found to be 0.0143.

For A111U A120C A145G C150U C169A U176G, the reverse-splicing fitness stood at 0.00555.

On to A111U A120G A145G C150A C169A, for which the reverse-splicing fitness came out at 0.0192.

For A111U A120C A145C C150G C169A U176A, the reverse-splicing fitness is 0.00803.

Turning to A111U A120C A145C C150G C169A U176G, the reverse-splicing fitness came to 0.00509.

Turning to A111U A120C A145C C150G C169A U176C, the reverse-splicing fitness amounted to 0.00519.

In the case of A111U A120C A145G C150A C169U U176G, the reverse-splicing fitness was 0.00691.

As to A111U A120C A145G C150A C169U U176C, the reverse-splicing fitness was 0.022.

As for A111U A120C A145G C150A C169U U176A, the reverse-splicing fitness is 0.0208.

With A111U A120C A145U C150G C169A U176G, the reverse-splicing fitness was 0.00497.

Regarding A111U A120C A145U C150G C169A U176A, the reverse-splicing fitness was determined as 0.00913.

Turning to A111U A120C A145U C150G C169A U176C, the reverse-splicing fitness was found to be 0.00757.

Regarding A111U A120C A145G C150U C169G U176G, the reverse-splicing fitness came out at 0.00528.

Turning to A111U A120C A145G C150U C169G U176A, the reverse-splicing fitness stood at 0.0125.

As for A111U A120C A145G C150U C169G U176C, the reverse-splicing fitness worked out at 0.0168.

Regarding A111U A120G A145C C150A, the reverse-splicing fitness is 0.0115.

Regarding A111U A120G A145C C150G, the reverse-splicing fitness came to 0.0213.

For A111U A120G A145C C150U, the reverse-splicing fitness amounted to 0.0388.

With A111U A120C A145C C150G U176G, the reverse-splicing fitness stood at 0.00429.

Turning to A111U A120C A145C C150G U176A, the reverse-splicing fitness was 0.0176.

Regarding A111U A120C A145C C150G U176C, the reverse-splicing fitness was 0.04.

For the variant A111U A120G A145C C169G U176C, the reverse-splicing fitness was 0.0387.

In the case of A111U A120G A145C C169G U176A, the reverse-splicing fitness amounted to 0.0371.

The record behind these values is the RNAGym collection of RNA variant scans (doi:10.1093/molbev/msab373).
